In experiment [1] the target is BH-REC1 fragment of NmeCas9 (Neisseria meningitides). Kind of experiment: ITC. A general note: Isothermal titration calorimetry measures the heat released or taken up as one component is titrated into another.
The target of experiment [2] is NmeCas9 (Neisseria meningitides) (UniProt C9X1G5). Kind of experiment: ITC.

For orientation: Kd means a measure of binding affinity in units of concentration. A low value points to a tighter complex. By stoichiometry N is commonly meant a count of units in the complex or per binding partner.

NmeCas9 (Neisseria meningitides), sequence (C9X1G5 whole entry): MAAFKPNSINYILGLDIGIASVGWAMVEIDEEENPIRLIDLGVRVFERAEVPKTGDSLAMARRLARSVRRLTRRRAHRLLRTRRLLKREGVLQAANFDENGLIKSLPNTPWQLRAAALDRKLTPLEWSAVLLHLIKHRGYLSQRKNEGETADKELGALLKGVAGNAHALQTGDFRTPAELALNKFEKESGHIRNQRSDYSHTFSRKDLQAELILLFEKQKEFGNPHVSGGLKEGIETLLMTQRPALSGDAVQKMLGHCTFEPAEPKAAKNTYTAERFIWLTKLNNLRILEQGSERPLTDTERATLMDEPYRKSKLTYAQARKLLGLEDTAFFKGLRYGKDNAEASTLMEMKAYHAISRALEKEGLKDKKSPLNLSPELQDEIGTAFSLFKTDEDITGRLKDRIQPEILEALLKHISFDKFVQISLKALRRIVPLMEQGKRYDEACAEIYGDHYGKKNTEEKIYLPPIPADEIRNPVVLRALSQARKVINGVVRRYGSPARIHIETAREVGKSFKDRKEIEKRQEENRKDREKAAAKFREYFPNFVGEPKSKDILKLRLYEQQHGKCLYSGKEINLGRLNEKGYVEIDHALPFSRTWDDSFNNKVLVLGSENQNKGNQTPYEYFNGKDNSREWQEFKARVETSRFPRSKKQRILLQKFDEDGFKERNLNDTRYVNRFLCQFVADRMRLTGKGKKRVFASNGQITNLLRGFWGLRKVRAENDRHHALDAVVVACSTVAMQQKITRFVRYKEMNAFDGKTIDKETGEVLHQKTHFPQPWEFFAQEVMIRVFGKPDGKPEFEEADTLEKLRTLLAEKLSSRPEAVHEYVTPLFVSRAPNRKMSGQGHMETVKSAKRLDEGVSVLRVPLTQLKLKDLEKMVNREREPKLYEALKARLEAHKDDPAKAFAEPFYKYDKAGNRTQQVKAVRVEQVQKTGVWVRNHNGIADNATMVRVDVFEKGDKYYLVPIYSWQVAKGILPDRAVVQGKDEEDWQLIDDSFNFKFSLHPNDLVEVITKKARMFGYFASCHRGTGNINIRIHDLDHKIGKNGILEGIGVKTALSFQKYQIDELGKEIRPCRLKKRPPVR

As for “AcrIIA17 D81A/E84A mutant (natural protein)”, in experiment [1], the fold reduction in binding affinity against wild-type AcrIIA17 came out at 20 fold.
As for AcrIIA17 (natural protein), the fold reduction of the binding affinity in high salt against 300 mM salt in experiment [1] worked out at 10 fold. Further, in experiment [2], the Kd stood at 5 nM and the stoichiometry N worked out at 1.

(Values after article PMC8754659.)
